Experimental findings from patent publication US8728754B1, “Use of proteins isolated from Pseudomonas to control molluscs” (priority 2013, dated 2014) are described below.

The test system of the series is mussels. In words: Mussel bioassay in scintillation vials. It counts as in vivo. Here is the method: Mussel bioassays were performed in twenty milliliter scintillation vials. Ten small mussels (approximately 1 cm long) were incubated in the mussel water (10 mL) for 24 hr first, then the mussel water (10 mL) was changed freshly before test cell lysis was added. Cell lysis or proteins (maximal 500 μL) was added into each vial. After 24 hr, the mussel water with cell lysis or proteins was changed with clean mussel water. Then, mussel water was changed every 24 hr with clean mussel water. Dead mussels were taken away every day and mussel mortality was calculated by number of dead mussel divided by the number of total mussels.

B1: dihydrolipoamide dehydrogenase (protein, UniProt P14218 2-478, looked up)
Dihydrolipoyl dehydrogenase: SQKFDVVVIGAGPGGYVAAIRAAQLGLKTACIEKYIGKEGKVALGGTCLNVGCIPSKALLDSSYKYHEAKEAFKVHGIEAKGVTIDVPAMVARKANIVKNLTGGIATLFKANGVTSFEGHGKLLANKQVEVTGLDGKTQVLEAENVIIASGSRPVEIPPAPLSDDIIVDSTGALEFQAVPKKLGVIGAGVIGLELGSVWARLGAEVTVLEALDKFLPAADEQIAKEALKVLTKQGLNIRLGARVTASEVKKKQVTVTFTDANGEQKETFDKLIVAVGRRPVTTDLLAADSGVTLDERGFIYVDDHCKTSVPGVFAIGDVVRGAMLAHKASEEGVMVAERIAGHKAQMNYDLIPSVIYTHPEIAWVGKTEQTLKAEGVEVNVGTFPFAASGRAMAANDTTGLVKVIADAKTDRVLGVHVIGPSAAELVQQGAIGMEFGTSAEDLGMMVFSHPTLSEALHEAALAVNGHAIHIANRKKR
notes: Molluscicidal protein isolated from Pseudomonas CL145A, identified as dihydrolipoamide dehydrogenase
On to B1, for which the “Mussel mortality at 7th day” value (5 ppm, 7th day) was 50%. In addition, for the setting “in vivo”, the “Activity in mussel bioassay of proteins and fractions dosed after gel analysis” value is on record as “active”.
